Results on two molecules are retold here after patent US7977317B2, “Compositions and methods for modulating blood-brain barrier transport” (Raptor Pharmaceutical Inc., priority 2001, dated 2011).

The test system of data set [1] is bovine brain capillary endothelial cell monolayers. As to the kind of experiment: Competition of [125I]-p97 binding on bovine brain capillary endothelial cell monolayers. To be noted: [125I]-p97 25 nM, 2 h at 4° C., competitor 7.5 micromolar (FIG. 3). The procedure: FIG. 3. Binding of p97 on bovine brain capillary endothelial cell monolayers. Binding p97 was performed with BBCECs that were pre-incubated 2 hrs in Ringer-Hepes to avoid any interference from the astrocytes. For the binding experiments, cells were incubated for 2 h at 4° C. in Ringer/Hepes in the presence of [^125I]-p97 (25 nM) and 7.5 micromolar concentrations of cold-p97, transferrin or lactoferrin, respectively. At the end of the incubation, the filters were gently washed at 4° C. three times with 4 ml of cold-PBS. Then the associated radioactivity of endothelial cells was determined by removing the membrane of the culture insert and counting it in a gamma counter.
B. Binding studies of p97. Binding of p97 was performed with BBCECs and Rat Brain Endothelial Cells that were pre-incubated 2 hrs in Ringer/Hepes to avoid any interference from the astrocytes.
For the binding experiments, cells were incubated for 2 h at 4° C. in Ringer/Hepes in the presence of [^125I]-p97 (25 nM) and increasing concentrations of cold-p97 or high (7.5 micromolar) concentrations of transferrin or lactoferrin. At the end of the incubation, the filters were gently washed at 4° C. three times with 4 ml of cold-PBS. Then the associated radioactivity of endothelial cells was determined by removing the membrane of the culture insert and counting it in a gamma counter.

In the next data set the test system is BBCEC monolayers. As to the kind of experiment: Transcytosis across BBCEC monolayers (in vitro BBB model). The format is cell-based, bovine. Particulars: for Effect on transcytosis of 125I-p97: competitor 5 micromolar (FIG. 10a, 10b). The text has this:
FIG. 10 assesses the ability of several agents to interfere with p97 transyctosis. FIG. 10a, transcytosis of I125-P97 was compared in the presence of cold p97 (5 micromolar), Lf (5 micromolar), and Tf (5 micromolar). […] FIG. 10c, RAP, a known poly-peptide inhibitor of the LDL-Receptor family was applied to the cells (25 micrograms/ml).
FIG. 11 examines the accumulation and transcytosis of p97. FIG. 11a, of [^125I]-p97, [^125I]-BSA and [^125I]-holo-transferrin one hour after i.v. injection. The radioactivity in brain was compared between the three compounds. (n=3); FIG. 11b, Accumulation of p97 and transferrin into the mouse brain parenchyma. In situ brain perfusion was performed with human [^125I]-p97 or [^125I]-holo-transferrin at a final concentration of 10 nM via a catheter inserted in the right common carotid artery. The volume of distribution (VD) of [^125I]-proteins were obtained in the whole brain homogenate (white bars), in brain capillaries (solid bars) and in brain parenchyma (hatched bars) after isolation of the right hemisphere and capillary depletion. Results were obtained for p97 (n=10) and for holo-transferrin (n=6); FIG. 11c, Transcytosis of p97 across BBCEC monolayers. Transcytosis experiments were performed 37° C. (open circles) and 4° C. (closed circles) with BBCEC monolayers. [^125I]-p97 (1 mg/ml) was added to the upper side of the cell-covered filter. One representative experiment is shown (n=4); FIG. 11d, Preferential transport of p97 across the BBCEC monolayers. Apical-to-basal and basal-to-apical transport of [^125I]-p97 (25 nM) was measured for 2 hrs at 37° C. At the end of the experiment, [^125I]-p97 was assessed in the lower or upper chambers of each well by TCA precipitation (n=4).
FIG. 13 illustrates the transcytosis and accumulation of p97 and transferrin in BBCEC monolayers. FIG. 13a, Transcytosis experiments were performed at 37° C. (solid bars) or 4° C. (white bars). [^125I]-p97 or bovine [^125I]-holo-transferrin (1 mg/ml) was added to the upper side of the cell-covered filter. At the end of the experiment, radiolabelled proteins were measured in the lower chamber of each well by TCA precipitation (n=4). Controls were also performed at 37° C. with denatured [^125I]-p97 or bovine [^125I]-holo-transferrin boiled for 30 min (grey bars) (n=2); FIG. 13b, Biospecific interaction analysis was performed with native or boiled p97 for the indicated times. MAb L235 (5 μg) was immobilized on a sensor chip (SM5) using standard procedures incorporating NHS, EDC and ethanolamine. Native and boiled p97 (5 to 30 min) diluted at 1 mg/ml in Ringer/Hepes was cooled and injected into the BIAcore. The surface plasmon resonance response obtained for native p97 and boiled p97 was plotted (in relative units (RU)) as a function of time; FIG. 13c, The accumulation of both proteins into BBEC cells were also measured. Briefly, after incubation at 37° C. (solid bars) or 4° C. (white bars) with either [^125I]-protein, cells were washed four times with cold PBS. Accumulation of both denatured proteins (grey bars) was also measured at 37° C. Filters were then removed, and the radioactivity associated with the cells was quantified (n=3).
FIG. 14 illustrates the stability of p97 and integrity of the BBCEC monolayers following p97 transcytosis. FIG. 14a, Transcytosis experiments were performed at 37° C. and 4° C. by adding p97 (1 mg/ml) to the upper compartment. At the end of the experiment, 50 μl from each lower chamber was used for SDS-polyacrylamide gel electrophoresis. After electrophoresis, the gels were stained with Coomassie Blue. A standard curve was also made with known amounts of recombinant p97 (0-2 μg); FIG. 14b. The gels were dried and scanned to quantify the amount of intact p97 that crossed the BBCEC monolayers at 37° C. and 4° C. (n=3); FIG. 14c, Effect of p97 on sucrose permeability of BBCE cell monolayers co-cultured with astrocytes. […]

The subject of another data set is RBE4 cells. Description: Competition of [125I]-p97 binding on rat brain endothelial cells (RBE4). To be noted: competitor 10 micromolar, 2 hrs at 4° C. (FIG. 4). The procedure:
FIG. 4. Binding of p97 on rat brain endothelial cells. Binding p97 was performed with RBE4 that were pre-incubated 2 hrs in Ringer-Hepes. For the binding experiments, cells in 24-well microplates were incubated for 2 h at 4° C. in Ringer/Hepes in the presence of [^125I]-p97 (25 nM) and 10 micromolar concentrations of cold-p97, transferrin or lactoferin, respectively. At the end of the incubation, the cells were gently washed at 4° C. three times with 4 ml of cold-PBS. RBE4 cells were then lysed with Triton X-100 and the associated radioactivity of with cell lysates was determined.
RBE4 cells were grown in monolayers in 24 wells plastic tissue culture flasks at 37° C. under 5% CO2 in minimum essential medium Alpha and Ham's F10 (1:1) supplemented with 10% heat inactivated fetal bovine serum. For p97 binding experiments, RBE4 cells were pre-incubated at 37° C. for 2 hrs in Ringer/Hepes. ^125I-p97 in 200 μl of Ringer/Hepes was added to RBE4 cells for 2 hrs at 4° C. in the presence or absence of high concentration of cold-p97, human holo-transferrin or human lactoferrin. After the incubation, the cells were washed 4 times with PBS and the ^125I-p97 associated with the cells was measured.

“Also recorded” adds a separate entry of the source.

B1: lactoferrin: lactoferrin (Lf), LRP ligand used as competitor (protein, UniProt P02788 20-710, looked up)
Lactotransferrin: GRRRSVQWCAVSQPEATKCFQWQRNMRKVRGPPVSCIKRDSPIQCIQAIAENRADAVTLDGGFIYEAGLAPYKLRPVAAEVYGTERQPRTHYYAVAVVKKGGSFQLNELQGLKSCHTGLRRTAGWNVPIGTLRPFLNWTGPPEPIEAAVARFFSASCVPGADKGQFPNLCRLCAGTGENKCAFSSQEPYFSYSGAFKCLRDGAGDVAFIRESTVFEDLSDEAERDEYELLCPDNTRKPVDKFKDCHLARVPSHAVVARSVNGKEDAIWNLLRQAQEKFGKDKSPKFQLFGSPSGQKDLLFKDSAIGFSRVPPRIDSGLYLGSGYFTAIQNLRKSEEEVAARRARVVWCAVGEQELRKCNQWSGLSEGSVTCSSASTTEDCIALVLKGEADAMSLDGGYVYTAGKCGLVPVLAENYKSQQSSDPDPNCVDRPVEGYLAVAVVRRSDTSLTWNSVKGKKSCHTAVDRTAGWNIPMGLLFNQTGSCKFDEYFSQSCAPGSDPRSNLCALCIGDEQGENKCVPNSNERYYGYTGAFRCLAENAGDVAFVKDVTVLQNTDGNNNEAWAKDLKLADFALLCLDGKRKPVTEARSCHLAMAPNHAVVSRMDKVERLKQVLLHQQAKFGRNGSDCPDKFCLFQSETKNLLFNDNTECLARLHGKTTYEKYLGPQYVAGITNLKKCSTSPLLEACEFLRK
For B1, the “Inhibition of [125I]-p97 binding to BBCECs” value in data set [1] is recorded as “competitively inhibited”. The “Effect on transcytosis of 125I-p97” value in the data set on BBCEC monolayers is “only the cold p97 successfully reduced”. In addition, the “Inhibition of [125I]-p97 binding to RBE4 cells” value with RBE4 cells is on record as “competitively inhibit”.

B2: p97: recombinant human melanotransferrin (p97), provided by Synapse Technologies (protein, UniProt P08582 20-709, looked up)
Melanotransferrin: GMEVRWCATSDPEQHKCGNMSEAFREAGIQPSLLCVRGTSADHCVQLIAAQEADAITLDGGAIYEAGKEHGLKPVVGEVYDQEVGTSYYAVAVVRRSSHVTIDTLKGVKSCHTGINRTVGWNVPVGYLVESGRLSVMGCDVLKAVSDYFGGSCVPGAGETSYSESLCRLCRGDSSGEGVCDKSPLERYYDYSGAFRCLAEGAGDVAFVKHSTVLENTDGKTLPSWGQALLSQDFELLCRDGSRADVTEWRQCHLARVPAHAVVVRADTDGGLIFRLLNEGQRLFSHEGSSFQMFSSEAYGQKDLLFKDSTSELVPIATQTYEAWLGHEYLHAMKGLLCDPNRLPPYLRWCVLSTPEIQKCGDMAVAFRRQRLKPEIQCVSAKSPQHCMERIQAEQVDAVTLSGEDIYTAGKTYGLVPAAGEHYAPEDSSNSYYVVAVVRRDSSHAFTLDELRGKRSCHAGFGSPAGWDVPVGALIQRGFIRPKDCDVLTAVSEFFNASCVPVNNPKNYPSSLCALCVGDEQGRNKCVGNSQERYYGYRGAFRCLVENAGDVAFVRHTTVFDNTNGHNSEPWAAELRSEDYELLCPNGARAEVSQFAACNLAQIPPHAVMVRPDTNIFTVYGLLDKAQDLFGDDHNKNGFKMFDSSNYHGQDLLFKDATVRAVPVGEKTTYRGWLGLDYVAALEGMSSQQC
Regarding B2, the “Inhibition of [125I]-p97 binding to BBCECs” value in data set [1] is “competitively inhibited”. Further, the “[125I]-p97 transport apical-to-basolateral relative to basolateral-to-apical” value in the data set with BBCEC monolayers (25 nM, after 2 hrs at 37° C. (FIG. 11d)) was “about 3 fold”. The “Temperature dependence of p97 transcytosis” value with BBCEC monolayers (37° C. versus 4° C., apical to basolateral) was “significantly higher at 37 °C than at 4 °C; also recorded: dramatic reduction”. For the same molecule, the “Transport from the apical to the basolateral surface of ECs compared with transferrin” value with BBCEC monolayers (37° C., 1 mg/ml (FIG. 13a)) is on record as “much higher than for transferrin”. Moreover, the “Saturability of p97 transcytosis” value with BBCEC monolayers (FIG. 9) is “saturable phenomenon”. Besides, in the data set on BBCEC monolayers (SDS-PAGE of lower compartment, 30-120 min (FIG. 14a)), the “Degradation of p97 after transcytosis” value is “no apparent degradation”. The “Effect of heat-denaturation on passage through BBCEC monolayers” value with BBCEC monolayers (boiled 30 min, 37° C. (FIG. 13a)) is given as “reduced the passage”. Moreover, in the data set with BBCEC monolayers, the “Effect on transcytosis of 125I-p97” value is “successfully reduced”. The “Membrane bound p97 transcytosed” value in the data set on BBCEC monolayers (in 10 minutes (FIG. 20)) was 80%. For the same molecule, the “Total amount of intact p97 after transendothelial transcytosis” value with BBCEC monolayers (p97 1 mg/ml, gel densitometry (FIG. 14b)) is reported as 35 μg/cm^2. The “Inhibition of [125I]-p97 binding to RBE4 cells” value in the data set on RBE4 cells is “competitively inhibit”.
